Source: article PMC9638971

Key:
[1] = biological target: periplasmic chaperone FkpA of P. aeruginosa (P. aeruginosa PAO1); assay: SEC-MALS; isolated chaperones at 2 mg/ml, Superdex 200 Increase 10/300 GL; FkpA, SurA and PpiD in 50 mM KCl, 5 mM MgCl2, 20 mM HEPES-KOH pH 7.4; YfgM in 5 mM glycine, 20 mM NaCl, 5 mM Tris-HCl pH 8.5; Skp in 100 mM NaCl, 20 mM Tris-HCl pH 8.0; LipH in 100 mM NaCl, 200 µM TCEP, 50 mM Tris-HCl pH 8.0
[2] = biological target: lipase A (LipA) from Pseudomonas aeruginosa PAO1, wild type (P. aeruginosa PAO1) (UniProt P26876)
[3] = biological target: fluorescein-5-maleimide-labelled wild-type lipase A (P. aeruginosa PAO1) (UniProt P26876)
[4] = biological target: periplasmic chaperone Skp of P. aeruginosa (P. aeruginosa PAO1); assay: SEC-MALS; isolated chaperones at 2 mg/ml, Superdex 200 Increase 10/300 GL; FkpA, SurA and PpiD in 50 mM KCl, 5 mM MgCl2, 20 mM HEPES-KOH pH 7.4; YfgM in 5 mM glycine, 20 mM NaCl, 5 mM Tris-HCl pH 8.5; Skp in 100 mM NaCl, 20 mM Tris-HCl pH 8.0; LipH in 100 mM NaCl, 200 µM TCEP, 50 mM Tris-HCl pH 8.0
[5] = biological target: lipase A mutant LipA_(F144E) (P. aeruginosa PAO1) (UniProt P26876); assay: SEC-MALS; LipA_(F144E):Skp mixture (molar ratio 1:3) compared with Skp3 alone; SDS-PAGE and densitometry of the peak fractions
[6] = biological target: fluorescein-5-maleimide-labelled lipase A mutant LipA_(F144E) (P. aeruginosa PAO1) (UniProt P26876); assay: MST; FM-labelled LipA_(F144E) kept constant, Skp titrated (monomer concentrations); TGCG buffer with 0.05% Tween 20; 15 min at 22°C; Monolith NT.115
[7] = biological target: periplasmic chaperone Skp of P. aeruginosa (P. aeruginosa PAO1); assay: SAXS; Skp at 1.20 mg/ml, 15 °C; ab initio reconstitution with P3 symmetry (GASBOR)
[8] = biological target: fluorescein-5-maleimide-labelled wild-type lipase A (P. aeruginosa PAO1) (UniProt P26876); remark: listed apart in the source
[9] = biological target: lipase A (LipA) from Pseudomonas aeruginosa PAO1, wild type (P. aeruginosa PAO1) (UniProt P26876); remark: listed apart in the source

periplasmic chaperone FkpA of P. aeruginosa (natural protein)
stoichiometry N [1]: 2

periplasmic chaperone Skp of P. aeruginosa (natural protein)
decrease in ThT fluorescence of LipA aggregates in the presence of Skp3 (0.5 µM LipA, 5 µM Skp3) [2]: 75%
soluble fraction of LipA in the sedimentation assay, 150 mM NaCl, 0.5 µM LipA and 5 µM Skp3 [3]: 66%
stoichiometry N [4]: 3
LipA:Skp3 ratio by densitometry of the peak fractions (Skp3 per LipA) [5]: 3
stoichiometry N (Skp3 per LipA) [5]: 2
KD of the first (high-affinity) binding mode [6]: 20 nM
KD of the second (low-affinity) binding mode [6]: 2 µM
stoichiometry N [7]: 3
soluble fraction of LipA in the sedimentation assay at LipA:Skp3 molar ratios 1:10, 1:3 and 1:1; value at 1:10 and 1:3, dropped dramatically at 1:1 [8]: > 70%

lipase-specific foldase LipH lacking the TMD (domain or fragment)
soluble fraction of LipA in the sedimentation assay, 150 mM NaCl, LipA:LipH molar ratio 1:1 [3]: > 80%
inhibition of pNPB hydrolysis by wild-type LipA with LipH and Skp3 added simultaneously (LipA:LipH:chaperone 1:1:5, 50 mM NaCl) [9]: < 10%
